In general, Km refers to the substrate concentration at which the rate is half of its maximum.

For 1 protein, Km results are on record in PMC9919730, “A Versatile Continuous Fluorometric Enzymatic Assay for Targeting Nicotinate Phosphoribosyltransferase” (Molecules, 2023).

Substrate in the data set: O=C(O)c1cccnc1
Nature of the data set: purified protein, by the assay type. As to conditions: other: kinetics in the absence of the inhibitor; 0.4 mM PRPP; pH 7.5; 37.0 °C.

B1: human recombinant NAPRT (Homo sapiens) (protein)
chain: MAAEQDPEARAAARPLLTDLYQATMALGYWRAGRARDAAEFELFFRRCPFGGAFALAAGLRDCVRFLRAFRLRDADVQFLASVLPPDTDPAFFEHLRALDCSEVTVRALPEGSLAFPGVPLLQVSGPLLVVQLLETPLLCLVSYASLVATNAARLRLIAGPEKRLLEMGLRRAQGPDGGLTASTYSYLGGFDSSSNVLAGQLRGVPVAGTLAHSFVTSFSGSEVPPDPMLAPAAGEGPGVDLAAKAQVWLEQVCAHLGLGVQEPHPGERAAFVAYALAFPRAFQGLLDTYSVWRSGLPNFLAVALALGELGYRAVGVRLDSGDLLQQAQEIRKVFRAAAAQFQVPWLESVLIVVSNNIDEEALARLAQEGSEVNVIGIGTSVVTCPQQPSLGGVYKLVAVGGQPRMKLTEDPEKQTLPGSKAAFRLLGSDGSPLMDMLQLAEEPVPQAGQELRVWPPGAQEPCTVRPAQVEPLLRLCLQQGQLCEPLPSLAESRALAQLSLSRLSPEHRRLRSPAQYQVVLSERLQALVNSLCAGQSP
As for B1, the Michaelis constant (Km) came out at 15 ± 6 µM.
